Data as given in patent US9914914B2, “Polymerase capable of producing non-DNA nucleotide polymers” (Medical Research Council, priority 2012, dated 2018).
“Also recorded” adds a separate entry of the source. Blank lines part the entries; values can stand above or below the molecule they belong to.

Assays:
Type in all cases: biochemical
[1] = system: FANA template; test: FANA reverse transcriptase screen (PCR from cDNA); conditions: judged by PCR from the cDNA
Procedure: ANA and FANA were synthesised using D4YK from DNA primers against a biotinylated template. This was captured onto streptavidin-coated paramagnetic beads and the nascent ANA or FANA strand eluted using two washes in 30 mM NaOH. The single stranded products were neutralised, ethanol precipitated and used as a template to screen a panel of commercial polymerases as well as in-house engineered polymerases for RT activity.
We have learnt that RT-521 must be removed before PCR as even low concentrations of RT-521 inhibit PCR. In this case, the reverse transcription reactions were purified by Exol (NEB) treatment to remove unextended primers and 0.05 volumes (1 μl out of 20 μl reaction) were used as template for 20 μl PCR with FastStart Taq (Roche). If the reactions had been purified by a method which removed RT-521 (e.g. silica column or phenol:chloroform extraction) the PCR for the RT-521 reaction would have been expected to be positive, as observed in other experiments (FIG. 19).

[2] = system: arabinosyl-NTPs, DNA template; test: Polymerase dilution experiment, ANA synthesis, D4K vs D4K521; conditions: for polymerase concentration at which full-length (+57 nt) ANA product is present: 0.125 mM each arabinosyl-NTP, 1 min 94° C., 30 sec 50° C., 2 min 65° C.
Procedure: In this experiment, the concentration of buffer (1× Thermopol (NEB) buffer), arabinosyl-NTPs (0.125 mM each), primer (200 nM), template (400 nM), the reaction volume ([…]) and extension conditions (1 min 94° C., 30 sec 50° C., 2 min 65° C.) were held constant.

[3] = system: faNTP, DNA template; test: FANA synthesis by D4YK
Procedure: (a) FANA synthesis at reduced faNTP concentrations. […] (b) Timecourse of YtRtemp8 (encoding 98 nt incorporations) synthesis by D4YK, showing substantial full-length synthesis in only 5 min. (c) Timecourse of ApLib5 (encoding 78 nt incorporations, of which 40 are random nucleotides) synthesis by D4YK, again showing substantial full length product in only 5 min.
Not only is FANA synthesis effective at relatively low FANA-NTP (faNTP) concentrations (less than 50 μM each, compared to 250 μM each for ANA synthesis) but synthesis of both a […] incorporation tRNA and an N40 library is efficient in less than 5 minutes (FIG. 15). This rapid synthesis and toleration of a wide range of substrate concentrations is indicative of an efficient polymerase, but neither single incorporation kinetics nor processivity have been investigated for D4YK.

[4] = system: arabinosyl-NTPs, DNA template; test: Polymerase dilution experiment, ANA synthesis, D4 vs D4K
Procedure: In this experiment, the concentration of buffer (1× Thermopol (NEB) buffer), arabinosyl-NTPs (0.25 mM each), primer (200 nM), template (400 nM), the reaction volume ([…]) and extension conditions (1 min 94° C., 30 sec 50° C., 2 min 65° C.) were held constant.

B1: RT-521: Tgo V93Q, D141A, E143A, A485L, I521L, K726R, E429G; SEQ ID NO:12 (protein)
chain: MILDTDYITEDGKPVIRIFKKENGEFKIDYDRNFEPYIYALLKDDSAIEDVKKITAERHGTTVRVVRAEKVKKKFLGRPIEVWKLYFTHPQDQPAIRDKIKEHPAVVDIYEYDIPFAKRYLIDKGLIPMEGDEELKMLAFAIATLYHEGEEFAEGPILMISYADEEGARVITWKNIDLPYVDVVSTEKEMIKRFLKVVKEKDPDVLITYNGDNFDFAYLKKRSEKLGVKFILGREGSEPKIQRMGDRFAVEVKGRIHFDLYPVIRRTINLPTYTLEAVYEAIFGQPKEKVYAEEIAQAWETGEGLERVARYSMEDAKVTYELGKEFFPMEAQLSRLVGQSLWDVSRSSTGNLVEWFLLRKAYERNELAPNKPDERELARRRESYAGGYVKEPERGLWENIVYLDFRSLYPSIIITHNVSPDTLNREGCGEYDVAPQVGHKFCKDFPGFIPSLLGDLLEERQKVKKKMKATIDPIEKKLLDYRQRLIKILANSFYGYYGYAKARWYCKECAESVTAWGRQYLETTIREIEEKFGFKVLYADTDGFFATIPGADAETVKKKAKEFLDYINAKLPGLLELEYEGFYKRGFFVTKKKYAVIDEEDKITTRGLEIVRRDWSEIAKETQARVLEAILKHGDVEEAVRIVKEVTEKLSKYEVPPEKLVIYEQITRDLKDYKATGPHVAVAKRLAARGIKIRPGTVISYIVLKGSGRIGDRAIPFDEFDPAKHRYDAEYYIENQVLPAVERILRAFGYRKEDLRYQKTRQVGLGAWLKPKT
modifications: T. go derived RT-521 polymerase
FANA RT activity [1]: does have FANA RT activity; also recorded: effective FANA reverse transcriptase

B3: D4K521: D4K with the further mutation I521L, SEQ ID NO:7 (protein)
chain: MILDTDYITEDGKPVIRIFKKENGEFKIDYDRNFEPYIYALLKDDSAIEDVKKITAERHGTTVRVVRAEKVKKKFLGRPIEVWKLYFTHPQDQPAIRDKIKEHPAVVDIYEYDIPFAKRYLIDKGLIPMEGDEELKMLAFAIATLYHEGEEFAEGPILMISYADEEGARVITWKNIDLPYVDVVSTEKEMIKRFLKVVKEKDPDVLITYNGDNFDFAYLKKRSEKLGVKFILGREGSEPKIQRMGDRFAVEVKGRIHFDLYPVIRRTINLPTYTLEAVYEAIFGQPKEKVYAEEIAQAWETGEGLERVARYSMEDAKVTYELGKEFFPMEAQLSRLVGQSLWDVSRSSTGNLVEWFLLRKAYERNELAPNKPDERELARRRESYAGGYVKEPERGLWENIVYPDFRSLYPSIIITHNVSPDTLNREGCEEYDVAPQVGHKFCKDFPGFIPSLLGDLLEERQKVKKKMKATIDPIEKKLLDYRQRLIKILANSFYGYYGYAKARWYCKECAESVTAWGRQYLETTIREIEEKFGFKVLYADTDGFFATIPGADAETVKKKAKEFLDYINAKLPGLLELEYEGFYKRGFFVTKKKYAVIDEEDKITTRGLEIVRRDWSEIAKETQARVLEAILKHGDVEEAVRIVKEVTEKLSKYEVPTQHLVIHKQITRALNDYKAIGPHVAVAKRLAARGIKIRPGTVISYIVLKGSGRIGDRAIPFDEFDPAKHKYDAEYYIENQVLPAVERILRAFGYRKEDLRYQKTRQVGLGAWLKPKT
modifications: Mutant polymerase D4YK with I521L mutation, derived from T. gorgonarius
polymerase concentration at which full-length (+57 nt) ANA product is present [2]: 2.3 nM
polymerase concentration for full-length ANA product relative to D4K ([2]; fraction of the concentration required for D4K): less than 1/8

B5: Dpo4: commercial DNA polymerase (protein, UniProt Q97W02 1-352, looked up)
DNA polymerase IV: MIVLFVDFDYFYAQVEEVLNPSLKGKPVVVCVFSGRFEDSGAVATANYEARKFGVKAGIPIVEAKKILPNAVYLPMRKEVYQQVSSRIMNLLREYSEKIEIASIDEAYLDISDKVRDYREAYNLGLEIKNKILEKEKITVTVGISKNKVFAKIAADMAKPNGIKVIDDEEVKRLIRELDIADVPGIGNITAEKLKKLGINKLVDTLSIEFDKLKGMIGEAKAKYLISLARDEYNEPIRTRVRKSIGRIVTMKRNSRNLEEIKPYLFRAIEESYYKLDKRIPKAIHVVAVTEDLDIVSRGRTFPHGISKETAYSESVKLLQKILEEDERKIRRIGVRFSKFIEAIGLDKFFDT
FANA RT activity [1]: weak RT activity

More lines, main results first:

polymerase concentration at which full-length (+57 nt) ANA product is present [2]: 18.8 nM
polymerase concentration at which full-length (+57 nt) ANA product is present ([4]; 0.25 mM each arabinosyl-NTP, 1 min 94° C., 30 sec 50° C., 2 min 65° C.): 18.8 nM
polymerase concentration for full-length ANA product relative to D4 ([4]; fraction of the concentration required for D4): less than 1/15
B2: D4K: Tgo polymerase with V93Q, D141A, E143A, L403P, A485L, P657T, E658Q, K659H, Y663H, E664K, D669A, K671N, T676I; SEQ ID NO:5 (protein)
chain: MILDTDYITEDGKPVIRIFKKENGEFKIDYDRNFEPYIYALLKDDSAIEDVKKITAERHGTTVRVVRAEKVKKKFLGRPIEVWKLYFTHPQDQPAIRDKIKEHPAVVDIYEYDIPFAKRYLIDKGLIPMEGDEELKMLAFAIATLYHEGEEFAEGPILMISYADEEGARVITWKNIDLPYVDVVSTEKEMIKRFLKVVKEKDPDVLITYNGDNFDFAYLKKRSEKLGVKFILGREGSEPKIQRMGDRFAVEVKGRIHFDLYPVIRRTINLPTYTLEAVYEAIFGQPKEKVYAEEIAQAWETGEGLERVARYSMEDAKVTYELGKEFFPMEAQLSRLVGQSLWDVSRSSTGNLVEWFLLRKAYERNELAPNKPDERELARRRESYAGGYVKEPERGLWENIVYPDFRSLYPSIIITHNVSPDTLNREGCEEYDVAPQVGHKFCKDFPGFIPSLLGDLLEERQKVKKKMKATIDPIEKKLLDYRQRLIKILANSFYGYYGYAKARWYCKECAESVTAWGRQYIETTIREIEEKFGFKVLYADTDGFFATIPGADAETVKKKAKEFLDYINAKLPGLLELEYEGFYKRGFFVTKKKYAVIDEEDKITTRGLEIVRRDWSEIAKETQARVLEAILKHGDVEEAVRIVKEVTEKLSKYEVPTQHLVIHKQITRALNDYKAIGPHVAVAKRLAARGIKIRPGTVISYIVLKGSGRIGDRAIPFDEFDPAKHKYDAEYYIENQVLPAVERILRAFGYRKEDLRYQKTRQVGLGAWLKPKT
modifications: Polymerase D4YK derived from T. gorgonarius
time for efficient FANA synthesis ([3]; 97 nt incorporation tRNA and N40 library): less than 5 minutes
time to substantial full-length FANA product ([3]; ApLib5 (78 nt incorporations, 40 random)): 5 min
time to substantial full-length FANA synthesis ([3]; YtRtemp8 (98 nt incorporations)): 5 min
faNTP concentration down to which FANA synthesis remains robust ([3]; YtRtemp9 (93 nt incorporations), each faNTP): ≥ 31.2 µM
FANA-NTP concentration at which FANA synthesis is effective ([3]; each faNTP, compared to 250 μM each for ANA synthesis): less than 50 μM

full-length (+57 nt) ANA product at 75 nM polymerase ([4]; 75 nM polymerase, 0.25 mM each arabinosyl-NTP): no full-length product
full-length (+57 nt) ANA product at 300 nM polymerase ([4]; 300 nM polymerase, 0.25 mM each arabinosyl-NTP): very little full-length
B4: D4: prior art TgoT-derived RNA polymerase with E664Q, SEQ ID NO:3 (protein)
chain: MILDTDYITEDGKPVIRIFKKENGEFKIDYDRNFEPYIYALLKDDSAIEDVKKITAERHGTTVRVVRAEKVKKKFLGRPIEVWKLYFTHPQDQPAIRDKIKEHPAVVDIYEYDIPFAKRYLIDKGLIPMEGDEELKMLAFAIATLYHEGEEFAEGPILMISYADEEGARVITWKNIDLPYVDVVSTEKEMIKRFLKVVKEKDPDVLITYNGDNFDFAYLKKRSEKLGVKFILGREGSEPKIQRMGDRFAVEVKGRIHFDLYPVIRRTINLPTYTLEAVYEAIFGQPKEKVYAEEIAQAWETGEGLERVARYSMEDAKVTYELGKEFFPMEAQLSRLVGQSLWDVSRSSTGNLVEWFLLRKAYERNELAPNKPDERELARRRESYAGGYVKEPERGLWENIVYLDFRSLYPSIIITHNVSPDTLNREGCEEYDVAPQVGHKFCKDFPGFIPSLLGDLLEERQKVKKKMKATIDPIEKKLLDYRQRLIKILANSFYGYYGYAKARWYCKECAESVTAWGRQYIETTIREIEEKFGFKVLYADTDGFFATIPGADAETVKKKAKEFLDYINAKLPGLLELEYEGFYKRGFFVTKKKYAVIDEEDKITTRGLEIVRRDWSEIAKETQARVLEAILKHGDVEEAVRIVKEVTEKLSKYEVPTQHLVIHQQITRALNDYKAIGPHVAVAKRLAARGIKIRPGTVISYIVLKGSGRIGDRAIPFDEFDPAKHKYDAEYYIENQVLPAVERILRAFGYRKEDLRYQKTRQVGLGAWLKPKT
modifications: Prior art T. gorgonarius (Tgo) derived polymerase D4 with mutated patch 10 region
